Measured values from doi:10.1101/2021.05.01.442157.

Target: amyloid β precursor-like protein 1 (Aplp1), on transfected SH-SY5Y cells (UniProt Q03157)
Assay: cell surface-binding assay

UniProt Q03157, sequence (Q03157 39-654): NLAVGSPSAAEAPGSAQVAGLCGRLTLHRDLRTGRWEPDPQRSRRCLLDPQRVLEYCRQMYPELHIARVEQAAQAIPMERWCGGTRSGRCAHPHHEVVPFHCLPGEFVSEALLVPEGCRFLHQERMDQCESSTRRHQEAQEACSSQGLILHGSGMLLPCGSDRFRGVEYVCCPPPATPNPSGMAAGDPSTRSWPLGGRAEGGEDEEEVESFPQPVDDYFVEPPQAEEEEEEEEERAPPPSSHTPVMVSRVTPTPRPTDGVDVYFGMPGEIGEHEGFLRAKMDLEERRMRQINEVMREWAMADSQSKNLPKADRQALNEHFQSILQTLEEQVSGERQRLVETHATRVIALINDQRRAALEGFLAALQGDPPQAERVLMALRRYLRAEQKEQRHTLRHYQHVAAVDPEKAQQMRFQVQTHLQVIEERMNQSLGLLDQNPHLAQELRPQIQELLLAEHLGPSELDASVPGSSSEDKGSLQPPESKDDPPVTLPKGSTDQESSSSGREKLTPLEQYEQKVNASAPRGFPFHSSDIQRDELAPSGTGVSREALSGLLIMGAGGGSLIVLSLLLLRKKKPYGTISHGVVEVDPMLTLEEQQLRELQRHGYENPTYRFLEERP

Kd: > 3000 nM
Substance: β-amyloid-biotin PFF (peptide)
